Fewer inactive variants are shown than the library holds.

B1: TPR 5TU (parent)
chain: GGAUCUUCUCGAUCUAACAAAAAAGACAAAUCUGCCACAAAGCUUGAGAGCAUCUUCGGAUGCAGAGGCGGCAGCCUUCGGUGGCGCGAUAGCGCCAACGUUCUCAACUAUGACACGCAAAACGCGUGCUCCGUUGAAUGGAGUUUAUCAUG

The variants in the data set derive from B1. In words: polymerase ribozyme fitness, log enrichment relative to wild type (log ratio); higher = more active; in vitro selection for triplet polymerase activity. In short, it runs like this: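 Input and output libraries were sequenced on Illumina after a single in vitro selection round, run in triplicate on PCR-built, transcribed mutant libraries of each subunit of a heterodimeric triplet polymerase ribozyme. Selection annealed libraries to a biotinylated primer, the partner subunit and triplets, incubated them frozen at −7 °C, then gel-excised extended constructs for streptavidin-bead capture and RT-PCR. Genotypes with ≥10 input reads and ≥1 read per output were kept. Fitness is the logarithm, taken in base 2, of genotype enrichment divided by wild-type enrichment, using inverse-variance-weighted replicate averages.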
As for C63U C69A C87A G140C, the “polymerase ribozyme fitness (log ratio)” value is ≤ -4.2.

Regarding A21C U53A G58A C95U U101G C116A, the “polymerase ribozyme fitness (log ratio)” value is -0.162.

As to A66G U82G C93A, the “polymerase ribozyme fitness (log ratio)” value is ≤ -4.2.

For the variant A39G G62A G94A A120U G143U, the “polymerase ribozyme fitness (log ratio)” value is ≤ -4.2.

A24G U53A C95U: the “polymerase ribozyme fitness (log ratio)” value is ≤ -4.2.

A52U U82A C93A C131G: the “polymerase ribozyme fitness (log ratio)” value was ≤ -4.2.

Consider A39G C51U A52U G74A, for which the “polymerase ribozyme fitness (log ratio)” value was ≤ -4.2.

C54U C87G C93U C125A G133A A142C: the “polymerase ribozyme fitness (log ratio)” value is ≤ -4.2.

On to A28U G68U C99U A110G, for which the “polymerase ribozyme fitness (log ratio)” value was ≤ -4.2.

Regarding U109G G140U, the “polymerase ribozyme fitness (log ratio)” value is -3.76.

On to A17U C32G C57A U139A, for which the “polymerase ribozyme fitness (log ratio)” value is ≤ -4.2.

C79U A91C: the “polymerase ribozyme fitness (log ratio)” value was -4.02.

As for G50A C85G, the “polymerase ribozyme fitness (log ratio)” value is -3.34.

As for U6G C85A, the “polymerase ribozyme fitness (log ratio)” value was -1.09.

As for A29G U31A C96U C114U G140C, the “polymerase ribozyme fitness (log ratio)” value is ≤ -4.2.

For A22G C36G G92A A137G, the “polymerase ribozyme fitness (log ratio)” value was ≤ -4.2.

Take U53A U55G: the “polymerase ribozyme fitness (log ratio)” value is -3.97.

Take C79U C87G: the “polymerase ribozyme fitness (log ratio)” value was -3.61.

On to C95A A98G, for which the “polymerase ribozyme fitness (log ratio)” value was found to be 0.372.

C96U G143C U146C: the “polymerase ribozyme fitness (log ratio)” value was -1.75.

For the variant C8A C14U C54A C99A, the “polymerase ribozyme fitness (log ratio)” value was ≤ -4.2.

Regarding G11C G59A A73G U82G, the “polymerase ribozyme fitness (log ratio)” value was -2.2.

As for A16G G94A U104A, the “polymerase ribozyme fitness (log ratio)” value is -0.709.

Regarding C57G G141A, the “polymerase ribozyme fitness (log ratio)” value was determined as 0.453.

Consider U7G G50U, for which the “polymerase ribozyme fitness (log ratio)” value is -3.02.

Take C93U G143C: the “polymerase ribozyme fitness (log ratio)” value is -3.12.

C5U A24U C32G U53G C123G A147G U151G: the “polymerase ribozyme fitness (log ratio)” value was ≤ -4.2.

For C54A C69U U144C, the “polymerase ribozyme fitness (log ratio)” value is -3.51.

Take A47C C57A C93U: the “polymerase ribozyme fitness (log ratio)” value was -1.3.

With A16C U61A G67A C87U A107U, the “polymerase ribozyme fitness (log ratio)” value was ≤ -4.2.

Turning to G11C U15G A20C A28U C85U G140U U145G, the “polymerase ribozyme fitness (log ratio)” value is ≤ -4.2.

As for A52U C125U, the “polymerase ribozyme fitness (log ratio)” value was -1.42.

As for C57U C95G U127C U139G A142G, the “polymerase ribozyme fitness (log ratio)” value is -4.04.

Take C95U C131G: the “polymerase ribozyme fitness (log ratio)” value was -3.24.

For G46A U53G, the “polymerase ribozyme fitness (log ratio)” value was -3.49.

For the variant G86A A110G U145A C149G, the “polymerase ribozyme fitness (log ratio)” value is ≤ -4.2.

Take G50C A64U C93G U111G C116U G143U: the “polymerase ribozyme fitness (log ratio)” value is ≤ -4.2.

In the case of A28C G46C C76G U82A A89C G124A, the “polymerase ribozyme fitness (log ratio)” value was ≤ -4.2.

For C38A C43G C105G C116U, the “polymerase ribozyme fitness (log ratio)” value is ≤ -4.2.

Regarding A12U C87A U90C A113G C131U, the “polymerase ribozyme fitness (log ratio)” value was ≤ -4.2.

In the case of C14G U61A C87U C95G U135G A142C, the “polymerase ribozyme fitness (log ratio)” value was ≤ -4.2.

On to G11C A37C U55G C93A C99G G124U C149U, for which the “polymerase ribozyme fitness (log ratio)” value was ≤ -4.2.

Take A21U C36G U44C C54G G74U A89G A120C U134G: the “polymerase ribozyme fitness (log ratio)” value is ≤ -4.2.

For A52C U90G, the “polymerase ribozyme fitness (log ratio)” value is ≤ -4.2.

As for A89G G92U C125U U146C, the “polymerase ribozyme fitness (log ratio)” value is -1.03.

As to A89C C93U G136C, the “polymerase ribozyme fitness (log ratio)” value was ≤ -4.2.

With C63G U102G C105U, the “polymerase ribozyme fitness (log ratio)” value was ≤ -4.2.

For C18G C57U, the “polymerase ribozyme fitness (log ratio)” value is -0.371.

On to C96A U130C, for which the “polymerase ribozyme fitness (log ratio)” value stood at 0.457.

As for C54U G70A G83A U90A G143U, the “polymerase ribozyme fitness (log ratio)” value is ≤ -4.2.

Consider A17U C18U C96G C125U, for which the “polymerase ribozyme fitness (log ratio)” value was -1.1.

Take C14U U15G U45A G58U C75G U135C: the “polymerase ribozyme fitness (log ratio)” value was ≤ -4.2.

Take U55A G94C: the “polymerase ribozyme fitness (log ratio)” value was -0.443.

As for G68C C85U, the “polymerase ribozyme fitness (log ratio)” value is -3.93.

Consider U9A C35U U55A A91C, for which the “polymerase ribozyme fitness (log ratio)” value was ≤ -4.2.

G42A G59C C125G: the “polymerase ribozyme fitness (log ratio)” value is ≤ -4.2.

For the variant U13C C93A, the “polymerase ribozyme fitness (log ratio)” value was -2.64.

Consider G11C A28G U56A U77A C87A A122U, for which the “polymerase ribozyme fitness (log ratio)” value was ≤ -4.2.

With A52U G59C A91U, the “polymerase ribozyme fitness (log ratio)” value is ≤ -4.2.

For the variant A52G A66C C85A A110C, the “polymerase ribozyme fitness (log ratio)” value is ≤ -4.2.

As to C14U A21G A29G C85U C116A, the “polymerase ribozyme fitness (log ratio)” value was -4.2.

On to C32G G92U U127G G152U, for which the “polymerase ribozyme fitness (log ratio)” value was -3.98.

Consider G71U A142C, for which the “polymerase ribozyme fitness (log ratio)” value was ≤ -4.2.

Turning to A40C C96G A119G, the “polymerase ribozyme fitness (log ratio)” value came out at 0.217.

As to A22C A47U C54U G86U C103A, the “polymerase ribozyme fitness (log ratio)” value was ≤ -4.2.

With A138G, the “polymerase ribozyme fitness (log ratio)” value was -1.9.

With A138U, the “polymerase ribozyme fitness (log ratio)” value is -3.87.

On to C10U C35U, for which the “polymerase ribozyme fitness (log ratio)” value is -3.04.

Regarding C8A G88A, the “polymerase ribozyme fitness (log ratio)” value was ≤ -4.2.

Regarding G50A A91U G100U C125A, the “polymerase ribozyme fitness (log ratio)” value is ≤ -4.2.

Consider U56A G80U, for which the “polymerase ribozyme fitness (log ratio)” value was -0.898.

With U9C A12U C27G G48A G74A G88A, the “polymerase ribozyme fitness (log ratio)” value is ≤ -4.2.

Turning to A17G A49U G71C C79A A106U, the “polymerase ribozyme fitness (log ratio)” value is ≤ -4.2.

Turning to G50C A52C C105A C125A A142C U146A, the “polymerase ribozyme fitness (log ratio)” value was ≤ -4.2.

Consider G94A G143U, for which the “polymerase ribozyme fitness (log ratio)” value was -3.57.

For the variant A3C G58C C63U C95G, the “polymerase ribozyme fitness (log ratio)” value is -1.68.

As for A64G C99A G143A, the “polymerase ribozyme fitness (log ratio)” value is ≤ -4.2.

G50A C76G C93G U102A U135G A150G: the “polymerase ribozyme fitness (log ratio)” value was ≤ -4.2.

Regarding A30U C43G A47G U53G C72A G140A, the “polymerase ribozyme fitness (log ratio)” value is ≤ -4.2.

As for U55G C79G U145A, the “polymerase ribozyme fitness (log ratio)” value was ≤ -4.2.

In the case of C38A U145C, the “polymerase ribozyme fitness (log ratio)” value is -0.328.

Consider C57G C123U U145A, for which the “polymerase ribozyme fitness (log ratio)” value was -0.237.

Consider U15C A49G C85U U109G, for which the “polymerase ribozyme fitness (log ratio)” value was -0.987.

As to C27G U55A, the “polymerase ribozyme fitness (log ratio)” value was -3.74.

The values are drawn from the RNAGym collection of RNA variant scans (doi:10.1073/pnas.2313332121).
